Patent publication US20240352452A1

How the values were obtained:
Assay in all cases: CasPlay immunoprecipitation of the virome-wide library (245,002 barcodes), z-score of gRNA barcodes
[1] = molecular target: dCas9-myc epitope tag control peptide (CasPlay virome library) (Streptococcus pyogenes) (UniProt Q99ZW2)
[2] = molecular target: dCas9-FLAG peptide fusion (CasPlay library member, C-terminal 6His tag) (Streptococcus pyogenes) (UniProt Q99ZW2)
[3] = molecular target: dCas9-HA epitope tag control peptide (CasPlay virome library) (Streptococcus pyogenes) (UniProt Q99ZW2)

## anti-myc antibody (Abcam ab9106)
[1]
  rank of z-score among all peptides of the library: < 0.2%

## anti-FLAG M2 antibody
[2]
  rank of z-score among all peptides of the library: < 0.2%

## anti-HA antibody (Cell Signaling C29F4)
[3]
  rank of z-score among all peptides of the library: < 0.2%
